In assay [1] the target is FcγRIIIa V176 (UniProt P08637).
Assay [2] deals with FcγRIIb (UniProt P31994). In words: SPR; Biacore T200, 25°C, HBS-EP+; anti-His antibody on a CM5 chip captures His-tagged FcγRIIb (404 RU); rituximab 375-6000 nM injected; steady-state model, report points 15 s after injection start. (In SPR one partner is held on a chip, and binding of the other changes the refractive index at the surface.)
Assay [3] deals with FcγRIIb (UniProt P31994). Kind of assay: SPR; Biacore T200, 25°C, HBS-EP+; His-tagged FcγRIIb captured by anti-His antibody on a CM5 chip (404 RU), rituximab injected at 375-6000 nM; steady-state model, report points 15 s after injection start.
The target of assay [4] is FcγRI (UniProt P12314). Kind of assay: SPR; Biacore T200, 25°C, HBS-EP+; His-tagged FcγR captured by anti-His antibody on a CM5 chip, rituximab injected; single-cycle kinetics, five concentrations, 600 s dissociation; 1:1 binding model, KD from kd/ka.
Chain of UniProt P12314 (P12314 16-292): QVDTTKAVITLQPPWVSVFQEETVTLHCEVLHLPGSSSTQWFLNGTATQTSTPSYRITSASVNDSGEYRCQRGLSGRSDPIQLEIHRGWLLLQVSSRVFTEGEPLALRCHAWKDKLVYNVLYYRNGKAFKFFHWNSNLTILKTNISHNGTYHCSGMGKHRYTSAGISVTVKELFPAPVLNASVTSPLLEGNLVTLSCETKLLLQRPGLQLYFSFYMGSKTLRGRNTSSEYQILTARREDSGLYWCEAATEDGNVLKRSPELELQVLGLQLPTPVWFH
Assay [5] concerns the target FcγRIIIa F176 (UniProt P08637). The assay is described as above.
For assay [6], the target named is FcγRIIIa F176 (UniProt P08637). In words: SPR; Biacore T200, 25°C, HBS-EP+; anti-His antibody amine-coupled on a CM5 chip captures the His-tagged FcγR; rituximab injected at five increasing concentrations (150 s, 30 µl/min), single-cycle kinetics, dissociation 600 s; 1:1 binding model, KD from kd/ka.
Assay [7] has as its target FcγRIIIa V176 (UniProt P08637). The assay is described as above.
Assay [8] has as its target FcγRI (UniProt P12314). Described as above.

Our source for the EC50 of the ADCC Reporter Bioassay (Promega G7015); Day 7 samples from 200, 400 and 800 µM ThioFuc (38, 34, 37 ng/mL); FcγRIIIa variant on the effector cells not stated, Kd and EC50 of the ADCC Reporter Bioassay (Promega G7015): Raji target cells, engineered Jurkat effector cells, luciferase; FcγRIIIa variant on the effector cells not stated values is PMC8248388.

pKd: −log10 of the molar value.

Chain of UniProt P31994 (P31994 43-217): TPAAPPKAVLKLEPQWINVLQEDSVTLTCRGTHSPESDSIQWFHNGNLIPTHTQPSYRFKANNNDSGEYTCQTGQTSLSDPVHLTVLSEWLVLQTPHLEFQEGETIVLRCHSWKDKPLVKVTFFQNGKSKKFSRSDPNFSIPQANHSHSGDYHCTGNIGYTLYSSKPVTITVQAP

Broadly, the pKd is −log10 of the Kd, conventionally taken in molar units. A high value points to a small Kd. The substance “modified rituximab (46% afucosylation and 48% thiofucosylation) (antibody)” registered an EC50 of the ADCC Reporter Bioassay (Promega G7015); Day 7 samples from 200, 400 and 800 µM ThioFuc (38, 34, 37 ng/mL); FcγRIIIa variant on the effector cells not stated in assay [1] of 0.038 µg/mL. Also, the pKd was 6.04 in assay [2]; 6.05 in assay [3]; 7.95 in assay [4]; 7.14 in assay [5]; 7.15 in assay [6]; 7.89 in assay [7].
In turn, “rituximab (8.5% afucosylation) (antibody)” came in with an EC50 of the ADCC Reporter Bioassay (Promega G7015): Raji target cells, engineered Jurkat effector cells, luciferase; FcγRIIIa variant on the effector cells not stated in assay [1] of 0.087 µg/mL. Also, the pKd in assay [4] was 7.85; in assay [8] it was 7.92.
